Where “and” joins values, the source holds several entries; their conditions need not be identical. Identical values can stand only once.
Key:
Clcn1 exon 7a = test: Alternative splicing of Clcn1 exon 7a in muscle by RT-PCR (PSI, splice recovery); type: in vivo, mouse; conditions: HSALR mice, individual mice; for Percentage spliced-in (PSI) Clcn1 Gast: 9.2 mg/kg (mean) i.v. x3, day 45, gastrocnemius; for Percentage spliced-in (PSI) Clcn1 Quads: 9.2 mg/kg (mean) i.v. x3, day 45, quadriceps
Procedure: (§1) Total RNA from murine gastrocnemius and quadriceps muscle was isolated using the miRNeasy Mini Kit (QIAGEN, Hilden, Germany) according to the manufacturer’s instructions. One microgram of RNA was digested with DNase I (Invitrogen, Carlsbad, CA) and reverse transcribed with SuperScript II (Invitrogen) using random hexanucleotides. For subsequent PCR reactions, 20 ng of cDNA was used with GoTaq polymerase (Promega). Specific primers were used to analyze the alternative splicing of Nfix, Atp2a1, and Clcn1 in mouse samples (both muscles). Gapdh levels established the endogenous reference levels using 0.2 ng of cDNA. PCR products were separated on a 2% agarose gel and quantified using ImageJ software (NIH, Bethesda, MD). PSR index was defined as value%SI minus X¯%DSI , divided by X¯%DSI minus X¯%HSI (SI, splicing inclusion of each sample; DSI, disease splicing inclusion; HSI, healthy splicing inclusion). Overall, PSR indicates the amount in both muscles analyzed. Primer sequences and exons analyzed are available in Cerro-Herreros et al.[20] In the case of off-targets, interleukins, and muscle regeneration marker Mstn-1, primers sequences are available in Table S5. We used 1 ng of mouse tissue cDNA as a template for multiplex qPCR using the QuantiFast Probe PCR Kit reagent. Commercial TaqMan probes (QIAGEN) were used for mouse (Mbnl1 and Mbnl2; FAM-labeled probes) and reference (GAPDH; MAX-labeled probe) genes. Results were normalized to Gapdh endogenous gene expression.
(§2) We used homozygous transgenic HSA^LR (line 20 b) mice,[90] which were kindly provided by Dr Thornton (Rochester, NY) and were housed and bred in our animal facility. Experimental groups were FVB as healthy control and HSA^LR treated with a scrambled ON (SC) and PBS as negative controls, and HSA^LR mice treated with all six experimental CPP-PMOs. The mice were randomly allocated to the different treatments as follows: in each cage, each mouse was ear-marked as it was taken out, and each mouse was then assigned to a different treatment. […] Mice were sacrificed 45 days after the first injection and the tissues of interest were frozen in liquid nitrogen for the molecular and histological assays. All the mice used in this study ranged from 5 to 5.5 months of age and all were males.

HSALR mice = test: White blood cell differential count; type: in vivo, mouse; conditions: mouse, in vivo, iv, 9.2 mg/kg
Excerpt: (§3) Mouse handling and experimental procedures followed the European law regarding laboratory animal care and experimentation (2003/65/C.E.) and were approved by Conselleria de Agricultura, […] (reference no. A1539961490857). We used homozygous transgenic HSA^LR (line 20 b) mice,[90] which were kindly provided by Dr Thornton (Rochester, NY) and were housed and bred in our animal facility. […] The mice were randomly allocated to the different treatments as follows: in each cage, each mouse was ear-marked as it was taken out, and each mouse was then assigned to a different treatment. Animals were injected biweekly intravenously with 150 μL of 1× PBS vehicle (controls; […] Mice were sacrificed 45 days after the first injection and the tissues of interest were frozen in liquid nitrogen for the molecular and histological assays. All the mice used in this study ranged from 5 to 5.5 months of age and all were males. At 45 days post treatment, animals were sacrificed, and blood was collected by cardiac puncture exsanguination with K3-EDTA (Sarstedt, Nümbrecht, Germany). The samples were analyzed by Laboratorios Montoro Botella (Valencia, Spain).

Nfix exon 7 = test: Alternative splicing of Nfix exon 7 in muscle by RT-PCR (PSI, splice recovery); type: in vivo, mouse; conditions: HSALR mice, individual mice; for Percentage spliced-in (PSI) Nfix Gast: 9.2 mg/kg (mean) i.v. x3, day 45, gastrocnemius; for Percentage spliced-in (PSI) Nfix Quads: 9.2 mg/kg (mean) i.v. x3, day 45, quadriceps
Procedure: as §1, §2

[1] = Bodyweight-normalized spleen weight and body weight; type: in vivo, mouse; conditions: mouse, in vivo; for Weight: iv, 9.2 mg/kg
Excerpt: as §3, with “males.” for “males. At 45 days post treatment, animals were sacrificed, and blood was collected by cardiac puncture exsanguination with K3-EDTA (Sarstedt, Nümbrecht, Germany). The samples were analyzed by Laboratorios Montoro Botella (Valencia, Spain).”

DM1 cells = test: Cell proliferation assay (CellTiter 96 AQueous), cell growth inhibition after lipofection; type: cell-based, human
Procedure: Cells seeded at 10^5 cells/mL in 96-well plates were transfected 24 h later with antimiRs as described previously.[20] After 96 h, cell proliferation was measured using the CellTiter 96 AQueous Non-Radioactive Cell Proliferation Assay (Promega, Madison, WI). Absorbance levels were determined using an Infinite M200 PRO plate reader (Tecan, Männedorf, Switzerland) and the TC50 was calculated using non-linear least-squares regression.

Atp2a1 exon 22 = test: Alternative splicing of Atp2a1 exon 22 in muscle by RT-PCR (PSI, splice recovery); type: in vivo, mouse; conditions: HSALR mice, individual mice; for Percentage spliced-in (PSI) Atp2a1 Gast: 9.2 mg/kg (mean) i.v. x3, day 45, gastrocnemius; for Percentage spliced-in (PSI) Atp2a1 Quads: 9.2 mg/kg (mean) i.v. x3, day 45, quadriceps
Procedure: as §1, §2

Substance	Percentage spliced-in (PSI) Clcn1 Gast (Clcn1 exon 7a)	Percentage spliced-in (PSI) Clcn1 Quads (Clcn1 exon 7a)	Basophils (HSALR mice)	Eosinophils (HSALR mice)	Lymphocytes (HSALR mice)	Monocytes (HSALR mice)	Seg cells (HSALR mice)	Percentage spliced-in (PSI) Nfix Gast (Nfix exon 7)	Percentage spliced-in (PSI) Nfix Quads (Nfix exon 7)	Weight [1]	TC50 (DM1 cells) [nM]	Percentage spliced-in (PSI) Atp2a1 Gast (Atp2a1 exon 22)	Percentage spliced-in (PSI) Atp2a1 Quads (Atp2a1 exon 22)	Weight (g) W.0 [1] [g]	Weight (g) W.1 [1] [g]	Weight (g) W.2 [1] [g]	Weight (g) W.3 [1] [g]	Weight (g) W.4 [1] [g]	Weight (g) W.5 [1] [g]	Weight (g) W.6 [1] [g]
6aKC-23b (antisense GGUAAUCCCUGGCAAUGUGAU; all phosphorodiamidate morpholino (PMO), T or U not given here; Pip6aKC peptide conjugated)	15.22% and 18.35% and 23.17% and 29.03% and 31.54%	24.44% and 30.63% and 35.11% and 37.69% and 28.33%	0 ± 0%	2,40 ± 1,341%	47,80 ± 12,133%	17,60 ± 7,537%	31,2 ± 13,142%	63.59% and 47.55% and 61.79% and 62.43% and 69.22%	56.32% and 62.29% and 64.55% and 58.42% and 53.11%	39.84 ± 3,561 g	1711.00	14.22% and 26.08% and 16.73% and 17.96% and 14.74%	29.81% and 23.38% and 17.76% and 24.03% and 33.87%	–	–	–	–	–	–	–
6aKC-218 (antisense ACAUGGUUAGAUCAAGCACAA; all phosphorodiamidate morpholino (PMO), T or U not given here; Pip6aKC peptide conjugated)	28.37% and 38.26% and 18.26% and 24.01% and 28.56%	33.68% and 24.84% and 25.74% and 41.25% and 27.67%	0 ± 0%	0,60 ± 0,894%	57,20 ± 12,357%	21,40 ± 7,127%	20,4 ± 6,189%	68.36% and 70.85% and 73.58% and 51.68% and 74.79%	52.44% and 62.29% and 52.77% and 89.96% and 66.72%	39,02 ± 1,460 g	1809.00	14.70% and 11.51% and 10.78% and 31.20% and 12.62%	21.08% and 26.96% and 31.16% and 9.84% and 26.51%	–	–	–	–	–	–	–
9b2-23b (antisense GGUAAUCCCUGGCAAUGUGAU; all phosphorodiamidate morpholino (PMO), T or U not given here; Pip9b2 peptide conjugated)	26.85% and 32.69% and 33.28% and 26.86% and 11.37%	0.61%	0,2 ± 0,447%	6,20 ± 2,588%	65,40 ± 6,189%	6,20 ± 2,683%	21 ± 3,391%	55.08% and 63.11% and 66.38% and 63.52% and 47.66%	15.30% and 54.78% and 4.40% and 48.44% and 23.44%	32,78 ± 4,285 g	88.00	52.69% and 18.37% and 16.01% and 11.16% and 23.52%	98.27% and 99.53% and 75.32% and 25.61% and 36.45%	28.7	29.2	28.6	29	29.1	29.4	29.1
9b2-218 (antisense ACAUGGUUAGAUCAAGCACAA; all phosphorodiamidate morpholino (PMO), T or U not given here; Pip9b2 peptide conjugated)	5.28% and 30.49% and 30.67% and 18.06% and 25.23%	4.09%	0,2 ± 0,447%	5,40 ± 2,073%	61,60 ± 4,159%	9,60 ± 3,209%	22,40 ± 3,647%	58.31% and 29.97% and 59.09% and 66.06% and 69.09%	30.95% and 10.51% and 43.26% and 15.39% and 35.59%	30,76 ± 2,745 g	42.00	14.72% and 85.58% and 28.83% and 19.19% and 31.61%	71.69% and 99.29% and 50.19% and 99.72% and 99.28%	–	–	–	–	–	–	–
9b2KC-23b (antisense GGUAAUCCCUGGCAAUGUGAU; all phosphorodiamidate morpholino (PMO), T or U not given here; Pip9b2KC peptide conjugated)	18.78% and 26.33% and 30.11% and 15.58% and 38.58%	29.66% and 22.47% and 19.41% and 27.99% and 26.94%	0 ± 0%	9,50 ± 3,109%	60,25 ± 6,185%	5,75 ± 2,363%	23,5 ± 4,203%	45.55% and 53.38% and 57.04% and 62.73% and 57.17%	54.10% and 56.90% and 66.58% and 51.62% and 56.46%	32,22 ± 5,551 g	256.00	11.22% and 31.29% and 33.92% and 10.51% and 42.67%	37.72% and 33.71% and 28.53% and 24.15% and 39.24%	–	–	–	–	–	–	–
